# Laboratory results taken from patent US20240082327.
# Tested on: Fct4 protein (Sendai virus F protein with truncated cytoplasmic domain), uncleaved
substance,measurement,value
trypsin-like enzyme TrypLE,cleavage of Fct4 shown by Western blotting,incubation with a trypsin-like enzyme successfully cleaves Fct4
